In PMC12416549 (2024):

T1: TNFR1 (Homo sapiens, UniProt P19438)
T1 chain: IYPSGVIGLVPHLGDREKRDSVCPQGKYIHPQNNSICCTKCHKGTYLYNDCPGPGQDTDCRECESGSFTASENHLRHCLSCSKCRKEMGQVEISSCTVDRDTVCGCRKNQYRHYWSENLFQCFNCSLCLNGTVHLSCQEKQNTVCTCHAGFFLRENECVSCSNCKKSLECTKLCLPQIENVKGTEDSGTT


Target: T1, TNFR1
Assay: yeast display SC50

| Binder | apparent Kd (screen) [nM] |
| --- | --- |
| K103Q (designed binder) MTLQELLREEALRRAEAEAFRYALELLAEKFPEQKEYLLDLAEEIESQIRSLSGVDVEDVRKFLDKEWAWVKELLAEHPAELAEVEAARAARLAELRAEVEAQVAA | 0.539 |
| A28K (designed binder) MTLQELLREEALRRAEAEAFRYALELLKEKFPEQKEYLLDLAEEIESQIRSLSGVDVEDVRKFLDKEWAWVKELLAEHPAELAEVEAARAARLAELRAEVEAKVAA | 10.4 |
| A105H (designed binder) MTLQELLREEALRRAEAEAFRYALELLAEKFPEQKEYLLDLAEEIESQIRSLSGVDVEDVRKFLDKEWAWVKELLAEHPAELAEVEAARAARLAELRAEVEAKVHA | 0.49 |
| V57I (designed binder) MTLQELLREEALRRAEAEAFRYALELLAEKFPEQKEYLLDLAEEIESQIRSLSGVDIEDVRKFLDKEWAWVKELLAEHPAELAEVEAARAARLAELRAEVEAKVAA | 2.73 |
| Q4V (designed binder) MTLVELLREEALRRAEAEAFRYALELLAEKFPEQKEYLLDLAEEIESQIRSLSGVDVEDVRKFLDKEWAWVKELLAEHPAELAEVEAARAARLAELRAEVEAKVAA | 0.49 |
| Q4H (designed binder) MTLHELLREEALRRAEAEAFRYALELLAEKFPEQKEYLLDLAEEIESQIRSLSGVDVEDVRKFLDKEWAWVKELLAEHPAELAEVEAARAARLAELRAEVEAKVAA | 0.79 |
| E86L (designed binder) MTLQELLREEALRRAEAEAFRYALELLAEKFPEQKEYLLDLAEEIESQIRSLSGVDVEDVRKFLDKEWAWVKELLAEHPAELAEVLAARAARLAELRAEVEAKVAA | 3 |
| Q4A (designed binder) MTLAELLREEALRRAEAEAFRYALELLAEKFPEQKEYLLDLAEEIESQIRSLSGVDVEDVRKFLDKEWAWVKELLAEHPAELAEVEAARAARLAELRAEVEAKVAA | 0.718 |
| P79Q (designed binder) MTLQELLREEALRRAEAEAFRYALELLAEKFPEQKEYLLDLAEEIESQIRSLSGVDVEDVRKFLDKEWAWVKELLAEHQAELAEVEAARAARLAELRAEVEAKVAA | 0.593 |
| V60R (designed binder) MTLQELLREEALRRAEAEAFRYALELLAEKFPEQKEYLLDLAEEIESQIRSLSGVDVEDRRKFLDKEWAWVKELLAEHPAELAEVEAARAARLAELRAEVEAKVAA | 12.5 |
| L75W (designed binder) MTLQELLREEALRRAEAEAFRYALELLAEKFPEQKEYLLDLAEEIESQIRSLSGVDVEDVRKFLDKEWAWVKELWAEHPAELAEVEAARAARLAELRAEVEAKVAA | 1.16 |
| E9H (designed binder) MTLQELLRHEALRRAEAEAFRYALELLAEKFPEQKEYLLDLAEEIESQIRSLSGVDVEDVRKFLDKEWAWVKELLAEHPAELAEVEAARAARLAELRAEVEAKVAA | 0.593 |
| E95A (designed binder) MTLQELLREEALRRAEAEAFRYALELLAEKFPEQKEYLLDLAEEIESQIRSLSGVDVEDVRKFLDKEWAWVKELLAEHPAELAEVEAARAARLAALRAEVEAKVAA | 0.593 |
| A88S (designed binder) MTLQELLREEALRRAEAEAFRYALELLAEKFPEQKEYLLDLAEEIESQIRSLSGVDVEDVRKFLDKEWAWVKELLAEHPAELAEVEASRAARLAELRAEVEAKVAA | 0.539 |
| V57P (designed binder) MTLQELLREEALRRAEAEAFRYALELLAEKFPEQKEYLLDLAEEIESQIRSLSGVDPEDVRKFLDKEWAWVKELLAEHPAELAEVEAARAARLAELRAEVEAKVAA | 1.54 |
| R97C (designed binder) MTLQELLREEALRRAEAEAFRYALELLAEKFPEQKEYLLDLAEEIESQIRSLSGVDVEDVRKFLDKEWAWVKELLAEHPAELAEVEAARAARLAELCAEVEAKVAA | 1.05 |
| K103R (designed binder) MTLQELLREEALRRAEAEAFRYALELLAEKFPEQKEYLLDLAEEIESQIRSLSGVDVEDVRKFLDKEWAWVKELLAEHPAELAEVEAARAARLAELRAEVEARVAA | 0.446 |

| Binder | apparent Kd (screen) [nM] |
| --- | --- |
| A87L (designed binder) MTLQELLREEALRRAEAEAFRYALELLAEKFPEQKEYLLDLAEEIESQIRSLSGVDVEDVRKFLDKEWAWVKELLAEHPAELAEVELARAARLAELRAEVEAKVAA | 0.653 |
| R92K (designed binder) MTLQELLREEALRRAEAEAFRYALELLAEKFPEQKEYLLDLAEEIESQIRSLSGVDVEDVRKFLDKEWAWVKELLAEHPAELAEVEAARAAKLAELRAEVEAKVAA | 0.593 |
| A76M (designed binder) MTLQELLREEALRRAEAEAFRYALELLAEKFPEQKEYLLDLAEEIESQIRSLSGVDVEDVRKFLDKEWAWVKELLMEHPAELAEVEAARAARLAELRAEVEAKVAA | 0.869 |
| K66G (designed binder) MTLQELLREEALRRAEAEAFRYALELLAEKFPEQKEYLLDLAEEIESQIRSLSGVDVEDVRKFLDGEWAWVKELLAEHPAELAEVEAARAARLAELRAEVEAKVAA | 0.539 |
| K72E (designed binder) MTLQELLREEALRRAEAEAFRYALELLAEKFPEQKEYLLDLAEEIESQIRSLSGVDVEDVRKFLDKEWAWVEELLAEHPAELAEVEAARAARLAELRAEVEAKVAA | 0.869 |
| L96K (designed binder) MTLQELLREEALRRAEAEAFRYALELLAEKFPEQKEYLLDLAEEIESQIRSLSGVDVEDVRKFLDKEWAWVKELLAEHPAELAEVEAARAARLAEKRAEVEAKVAA | 0.49 |
| E81V (designed binder) MTLQELLREEALRRAEAEAFRYALELLAEKFPEQKEYLLDLAEEIESQIRSLSGVDVEDVRKFLDKEWAWVKELLAEHPAVLAEVEAARAARLAELRAEVEAKVAA | 0.593 |
| A23L (designed binder) MTLQELLREEALRRAEAEAFRYLLELLAEKFPEQKEYLLDLAEEIESQIRSLSGVDVEDVRKFLDKEWAWVKELLAEHPAELAEVEAARAARLAELRAEVEAKVAA | 0.593 |
| S53E (designed binder) MTLQELLREEALRRAEAEAFRYALELLAEKFPEQKEYLLDLAEEIESQIRSLEGVDVEDVRKFLDKEWAWVKELLAEHPAELAEVEAARAARLAELRAEVEAKVAA | 2.25 |
| K66D (designed binder) MTLQELLREEALRRAEAEAFRYALELLAEKFPEQKEYLLDLAEEIESQIRSLSGVDVEDVRKFLDDEWAWVKELLAEHPAELAEVEAARAARLAELRAEVEAKVAA | 0.49 |
| Q4I (designed binder) MTLIELLREEALRRAEAEAFRYALELLAEKFPEQKEYLLDLAEEIESQIRSLSGVDVEDVRKFLDKEWAWVKELLAEHPAELAEVEAARAARLAELRAEVEAKVAA | 0.446 |
| D40N (designed binder) MTLQELLREEALRRAEAEAFRYALELLAEKFPEQKEYLLNLAEEIESQIRSLSGVDVEDVRKFLDKEWAWVKELLAEHPAELAEVEAARAARLAELRAEVEAKVAA | 2.48 |
| E81D (designed binder) MTLQELLREEALRRAEAEAFRYALELLAEKFPEQKEYLLDLAEEIESQIRSLSGVDVEDVRKFLDKEWAWVKELLAEHPADLAEVEAARAARLAELRAEVEAKVAA | 0.718 |
| P32S (designed binder) MTLQELLREEALRRAEAEAFRYALELLAEKFSEQKEYLLDLAEEIESQIRSLSGVDVEDVRKFLDKEWAWVKELLAEHPAELAEVEAARAARLAELRAEVEAKVAA | 0.49 |
| K103C (designed binder) MTLQELLREEALRRAEAEAFRYALELLAEKFPEQKEYLLDLAEEIESQIRSLSGVDVEDVRKFLDKEWAWVKELLAEHPAELAEVEAARAARLAELRAEVEACVAA | 0.539 |
| S53T (designed binder) MTLQELLREEALRRAEAEAFRYALELLAEKFPEQKEYLLDLAEEIESQIRSLTGVDVEDVRKFLDKEWAWVKELLAEHPAELAEVEAARAARLAELRAEVEAKVAA | 0.49 |
| D59W (designed binder) MTLQELLREEALRRAEAEAFRYALELLAEKFPEQKEYLLDLAEEIESQIRSLSGVDVEWVRKFLDKEWAWVKELLAEHPAELAEVEAARAARLAELRAEVEAKVAA | 1.05 |
